Source: patent publication US20250243265A1

Experiments:
[1] = molecular target: K63-linked diubiquitin (Boston Biochem) (Homo sapiens (Human)) (UniProt P0CG48); experiment: western blot, 1 µg/mL IgG, two-fold dilutions of K63-linked diubiquitin
[2] = molecular target: endogenous K48 polyubiquitin linkages in 293T cell lysates (human) (UniProt P0CG48); experiment: IP in 7 M urea from LUBAC over-expressing 293T lysate (input 12420), mass spec AQUA
[3] = molecular target: endogenous K63 polyubiquitin linkages in 293T cell lysates (human) (UniProt P0CG48); experiment: IP in 7 M urea from LUBAC over-expressing 293T lysate (input 5075), mass spec AQUA

Substance	limit of detection in western blot [1] [ng]	polyubiquitin linkages recovered in the IP [2] [pmol]	polyubiquitin linkages recovered in the IP [3] [pmol]
Apu3.A8 anti-K63 IgG (antibody)	62		
isotype control IgG (unrelated human kappa IgG1 antibody)		1	0
